Measured values published in US20220025021A1 (BETH ISRAEL DEACONESS MEDICAL CENTER, published 2022).

Legend:
Assay in all cases: cell-based or functional assay
[1] = target: HIV-1 pseudovirus AC10.0.29 (HIV-1)
[2] = target: HIV-1 pseudovirus Ce1176_A3 (HIV-1)
[3] = target: HIV-1 pseudovirus 6952.v1.c20 (HIV-1)
[4] = target: HIV-1 pseudovirus SC05.8C11.2344 (HIV-1)
[5] = target: HIV-1 pseudovirus 263-8 (HIV-1)
[6] = target: HIV-1 pseudovirus X1193_c1 (HIV-1)

Binder | IC50 (neutralization in TZM.bl cells) [1] [µg/mL] | IC80 (neutralization in TZM.bl cells) [1] [µg/mL] | IC50 (neutralization in TZM.bl cells) [2] [µg/mL] | IC80 (neutralization in TZM.bl cells) [2] [µg/mL] | IC50 (neutralization in TZM.bl cells) [3] [µg/mL] | IC80 (neutralization in TZM.bl cells) [3] [µg/mL] | IC50 (neutralization in TZM.bl cells) [4] [µg/mL] | IC80 (neutralization in TZM.bl cells) [4] [µg/mL] | IC50 (neutralization in TZM.bl cells) [5] [µg/mL] | IC80 (neutralization in TZM.bl cells) [5] [µg/mL] | IC50 (neutralization in TZM.bl cells) [6] [µg/mL] | IC80 (neutralization in TZM.bl cells) [6] [µg/mL]
MS-77 (antibody, V domains shown) VH: QVQLVQSGPEVRKPGTSVKVSCKAPGNTFKTYDLHWVRSVPGQGLQWMGWISHEGDKKVIVERFKAKVTIDWDRSTNTAYLQLSGLTSGDTAVYYCAKGSKHRLRDYALYDDDGALNWAVDVDYLSNLEFWGQGTAVTVSS VL: DFVLTQSPHSLSVTPGESASISCKSSHSLIHGDRNNYLAWYVQKPGRSPQLLIYLASSRASGVPDRFSGSGSDKDFTLKISRVETEDVGTYYCMQGRESPWTFGQGTKVDIKR | 0.036 | 0.311 | 0.067 | 1.12 | 0.236 | 6.74 | 0.516 | 2.41 | 0.012 | 0.033 | 0.109 | 0.398
MS-79 (antibody, V domains shown) VH: QVQLVQSGPEVRKPGTSVKVSCKAPGNTLKTYDLHWVRSVPGQGLQWMGWISHEGDKKVIVERFKAKVTITWDRSTNTAYLQLSGLTSGDTAVYYCAKGSKHRLRDYALYDDDGALNWAVDVDYLSNLEFWGQGTAVTVSS VL: DFVLTQSPHSLSVTPGESASISCKSSHSLIHGDRNNYLAWYVQKPGRSPQLLIYLASSRASGVPDRFSGSGSDKDFTLKISRVETEDVGTYYCMQGRESPWTFGQGTKVDIKR | 0.056 | 0.404 | 0.473 | 9.05 | 13.2 | > 25 | 0.593 | 1.97 | 0.018 | 0.067 | 0.109 | 0.365
MS-85 (antibody, V domains shown) VH: QVQLVQSGPEVRKPGTSVKVSCKAPGNTLKTYDLHWVRSVPGQGLQWMGWISHEGDKKVIVERFKAKVTIDWDRSTNTAYLQLSGLTSGDTAVYYCAKGSKHRLRDYALYDDDGALNWAVDVDYLSNLEFWGQGTAVTVSS VL: DIVLTQSPHSLSVTPGESASISCKSSHSLIHGDRNNYLAWYVQKPGRSPQLLIYLASSRASGVPDRFSGSGSGTDFTLKISRVETEDVGTYYCMQGRESPWTFGQGTKVDIKR | 0.044 | 0.242 | 0.073 | 1.72 | 0.393 | > 25 | 0.425 | 1.49 | 0.011 | 0.043 | 0.068 | 0.507
MS-81 (antibody, V domains shown) VH: QVQLVQSGPEVRKPGTSVKVSCKAPGNTLKTYDLHWVRSVPGQGLQWMGWISHEGDKKVIVERFKAKVTIDWDRSTNTAYLELSGLTSGDTAVYYCAKGSKHRLRDYALYDDDGALNWAVDVDYLSNLEFWGQGTAVTVSS VL: DFVLTQSPHSLSVTPGESASISCKSSHSLIHGDRNNYLAWYVQKPGRSPQLLIYLASSRASGVPDRFSGSGSDKDFTLKISRVETEDVGTYYCMQGRESPWTFGQGTKVDIKR | 0.044 | 0.324 | 0.044 | 0.646 | 0.228 | > 25 | 0.537 | 2.01 | 0.013 | 0.037 | 0.113 | 0.512
MS-82 (antibody, V domains shown) VH: QVQLVQSGPEVRKPGTSVKVSCKAPGNTLKTYDLHWVRSVPGQGLQWMGWISHEGDKKVIVERFKAKVTIDWDRSTNTAYLQLSGLRSGDTAVYYCAKGSKHRLRDYALYDDDGALNWAVDVDYLSNLEFWGQGTAVTVSS VL: DFVLTQSPHSLSVTPGESASISCKSSHSLIHGDRNNYLAWYVQKPGRSPQLLIYLASSRASGVPDRFSGSGSDKDFTLKISRVETEDVGTYYCMQGRESPWTFGQGTKVDIKR | 0.05 | 0.267 | 0.023 | 0.635 | 0.212 | 23 | 0.502 | 1.8 | 0.011 | 0.033 | 0.084 | 0.411
MS-78 (antibody, V domains shown) VH: QVQLVQSGPEVRKPGTSVKVSCKAPGNTLKTYDLHWVRSVPGQGLEWMGWISHEGDKKVIVERFKAKVTIDWDRSTNTAYLQLSGLTSGDTAVYYCAKGSKHRLRDYALYDDDGALNWAVDVDYLSNLEFWGQGTAVTVSS VL: DFVLTQSPHSLSVTPGESASISCKSSHSLIHGDRNNYLAWYVQKPGRSPQLLIYLASSRASGVPDRFSGSGSDKDFTLKISRVETEDVGTYYCMQGRESPWTFGQGTKVDIKR | 0.044 | 0.225 | 0.047 | 0.837 | 0.342 | > 25 | 0.658 | 2.26 | 0.014 | 0.053 | 0.126 | 0.452
MS-80 (antibody, V domains shown) VH: QVQLVQSGPEVRKPGTSVKVSCKAPGNTLKTYDLHWVRSVPGQGLQWMGWISHEGDKKVIVERFKAKVTIDRDRSTNTAYLQLSGLTSGDTAVYYCAKGSKHRLRDYALYDDDGALNWAVDVDYLSNLEFWGQGTAVTVSS VL: DFVLTQSPHSLSVTPGESASISCKSSHSLIHGDRNNYLAWYVQKPGRSPQLLIYLASSRASGVPDRFSGSGSDKDFTLKISRVETEDVGTYYCMQGRESPWTFGQGTKVDIKR | 0.054 | 0.28 | 1.11 | > 25 | > 25 | > 25 | 0.898 | 3.15 | 0.033 | 0.173 | 0.137 | 0.607
MS-83 (antibody, V domains shown) VH: QVQLVQSGPEVRKPGTSVKVSCKAPGNTLKTYDLHWVRSVPGQGLQWMGWISHEGDKKVIVERFKAKVTIDWDRSTNTAYLQLSGLTSGDTAVYYCAKGSKHRLRDYALYDDEGALNWAVDVDYLSNLEFWGQGTAVTVSS VL: DFVLTQSPHSLSVTPGESASISCKSSHSLIHGDRNNYLAWYVQKPGRSPQLLIYLASSRASGVPDRFSGSGSDKDFTLKISRVETEDVGTYYCMQGRESPWTFGQGTKVDIKR | 0.038 | 0.259 | 0.029 | 0.405 | 0.126 | 3.09 | 0.381 | 1.88 | 0.007 | 0.05 | 0.061 | 0.308
MS-84 (antibody, V domains shown) VH: QVQLVQSGPEVRKPGTSVKVSCKAPGNTLKTYDLHWVRSVPGQGLQWMGWISHEGDKKVIVERFKAKVTIDWDRSTNTAYLQLSGLRSGDTAVYYCAKGSKHRLRDYALYDDDGALNWAVDVDYLSNLEFWGQGTAVTVSS VL: DFVLTQSPLSLPVTPGEPASISCKSSHSLIHGDRNNYLAWYVQKPGQSPQLLIYLASSRASGVPDRFSGSGSDKDFTLKISRVEAEDVGVYYCMQGRESPWTFGQGTKVDIKR | 0.052 | 0.257 | 0.018 | 0.567 | 0.237 | 18.2 | 0.481 | 1.74 | 0.006 | 0.03 | 0.058 | 0.285
MS-86 (antibody) VH: not shown VL: DFVLTQSPHSLSVTPGESASISCKSSHSLIHGDRNNYLAWYVQKPGRSPQLLIYLASSRASGVPDRFSGSGSDKDFTLKISRVETEDVGTYYCMQGRESPWTFGQGTKVDIKRTVAAPSVFIFPPSDEQLKSGTASVVCLLNNFYPREAKVQWKVDNALQSGNSQESVTEQDSKDSTYSLSSTLTLSKADYEKHKVYACEVTHQGLSSPVTKSFNRGEC | 0.107 | 0.741 | 0.366 | 4.25 | 2.55 | > 25 | 1.62 | 5.39 | 0.009 | 0.05 | 0.167 | 0.371
